Assay results from article PMC7289862, “Real-time tracking reveals catalytic roles for the two DNA binding sites of Rad51” (Nature Communications, 2019).
Positions count from the first letter of the chain named. Numbers in names are those of the source.

Tests used:
Rad51-L2 [1] = molecular target: T1, Rad51-L2 (Schizosaccharomyces pombe, UniProt P36601 1-365, V295A); experiment: fluorescence anisotropy; 1 mM ATP, 3 mM MgCl2; Hill n 2.59; 30 mM HEPES-KOH pH 7.5, 100 mM KCl, 3 mM MgCl2, 1 mM DTT, 5% glycerol, 1 mM ATP, 25 C (EMSA: 2 mM ATP, 37 C, then 0.2% glutaraldehyde); conditions: protein: recombinant; label: 5' TAMRA
T1 sequence: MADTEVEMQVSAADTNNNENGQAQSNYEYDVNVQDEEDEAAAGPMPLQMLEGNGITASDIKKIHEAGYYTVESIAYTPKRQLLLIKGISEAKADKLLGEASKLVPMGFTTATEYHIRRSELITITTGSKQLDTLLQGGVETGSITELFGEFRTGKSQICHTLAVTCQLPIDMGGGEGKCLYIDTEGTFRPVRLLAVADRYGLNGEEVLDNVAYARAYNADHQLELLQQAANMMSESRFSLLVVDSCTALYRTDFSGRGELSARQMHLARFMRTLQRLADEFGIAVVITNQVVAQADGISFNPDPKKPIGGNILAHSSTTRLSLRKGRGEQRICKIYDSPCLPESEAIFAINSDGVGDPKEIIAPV

Rad51-S2 [2] = molecular target: T2, Rad51-S2 (Schizosaccharomyces pombe, UniProt P36601 1-365, R324A;K334A); experiment: fluorescence anisotropy; 1 mM ATP, 3 mM MgCl2; Hill n 2.25; 30 mM HEPES-KOH pH 7.5, 100 mM KCl, 3 mM MgCl2, 1 mM DTT, 5% glycerol, 1 mM ATP, 25 C (EMSA: 2 mM ATP, 37 C, then 0.2% glutaraldehyde); conditions: protein: recombinant; label: 5' TAMRA
T2 sequence: T1 sequence with A295V, R324A, K334A

Rad51 wild-type [3] = molecular target: T3, Rad51 wild-type (Schizosaccharomyces pombe, UniProt P36601 1-365); experiment: fluorescence anisotropy; 1 mM ATP, 3 mM MgCl2; Hill n 2.86; 30 mM HEPES-KOH pH 7.5, 100 mM KCl, 3 mM MgCl2, 1 mM DTT, 5% glycerol, 1 mM ATP, 25 C (EMSA: 2 mM ATP, 37 C, then 0.2% glutaraldehyde); conditions: protein: recombinant; label: 5' TAMRA
T3 sequence: T1 sequence with A295V

Rad51-L1 [4] = molecular target: T4, Rad51-L1 (Schizosaccharomyces pombe, UniProt P36601 1-365, R257A); experiment: fluorescence anisotropy; 1 mM ATP, 3 mM MgCl2; Hill n 2.94; 30 mM HEPES-KOH pH 7.5, 100 mM KCl, 3 mM MgCl2, 1 mM DTT, 5% glycerol, 1 mM ATP, 25 C (EMSA: 2 mM ATP, 37 C, then 0.2% glutaraldehyde); conditions: protein: recombinant; label: 5' TAMRA
T4 sequence: T1 sequence with R257A, A295V

Swi5-Sfr1 complex = molecular target: T5, Swi5-Sfr1 complex (UniProt Q9UUB7 1-85; Q9USV1 1-299); experiment: co-IP; purified Rad51 (2.5 uM) and Swi5-Sfr1 (2.5 uM) mixed in 30 mM Tris-HCl pH 7.5, 20 mM KCl, 3 mM MgCl2, 1 mM DTT, 5% glycerol, 0.05% NP-40, 30 min at 4 °C; precipitated with rabbit anti-Rad51 antibody and protein G magnetic beads; western blots for Rad51, Sfr1 and Swi5; conditions: both partners purified
T5 construct: Swi5, subunit of the Swi5-Sfr1 complex; Sfr1, subunit of the Swi5-Sfr1 complex; Over-expressed and purified as a preformed complex; detected in the co-IP by blots for Sfr1 and Swi5; No tag is mentioned; also called Swi5-Sfr1 auxiliary factor; source: E. coli BL21-Codonplus(DE3) RIPL, purified as a complex (ammonium sulfate, Q Sepharose, HiTrap Heparin, Superdex 200)
T5 sequence (looked up) 1: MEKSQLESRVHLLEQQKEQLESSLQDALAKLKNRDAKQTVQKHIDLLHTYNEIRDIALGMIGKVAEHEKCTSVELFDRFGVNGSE
T5 sequence (looked up) 2: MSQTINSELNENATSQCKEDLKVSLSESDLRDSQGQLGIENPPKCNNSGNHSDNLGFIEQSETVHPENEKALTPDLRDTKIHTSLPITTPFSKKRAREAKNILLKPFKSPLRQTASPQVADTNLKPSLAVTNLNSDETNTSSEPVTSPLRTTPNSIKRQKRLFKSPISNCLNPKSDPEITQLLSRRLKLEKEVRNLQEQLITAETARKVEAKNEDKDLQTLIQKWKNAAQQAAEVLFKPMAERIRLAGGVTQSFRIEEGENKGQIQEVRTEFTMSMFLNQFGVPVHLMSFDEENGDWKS

Rad51-L1 [5] = molecular target: T4, Rad51-L1; experiment: FRET; 1 mM ATP; elongation comparable to WT; 30 mM HEPES-KOH pH 7.5, 100 mM KCl, 3 mM MgCl2, 1 mM DTT, 5% glycerol, 1 mM ATP, 25 C (EMSA: 2 mM ATP, 37 C, then 0.2% glutaraldehyde); conditions: protein: recombinant; label: internal fluorescein and ROX
Rad51-S2 [6] = molecular target: T2, Rad51-S2; experiment: as above; conditions: protein: recombinant; label: internal fluorescein and ROX
Rad51-L2 [7] = molecular target: T1, Rad51-L2; experiment: FRET; 1 mM ATP; 1.40x B-form; 30 mM HEPES-KOH pH 7.5, 100 mM KCl, 3 mM MgCl2, 1 mM DTT, 5% glycerol, 1 mM ATP, 25 C (EMSA: 2 mM ATP, 37 C, then 0.2% glutaraldehyde); conditions: protein: recombinant; label: internal fluorescein and ROX
Rad51 wild-type [8] = molecular target: T3, Rad51 wild-type; experiment: FRET; 1 mM ATP; ssDNA elongated to 1.45x B-form; 30 mM HEPES-KOH pH 7.5, 100 mM KCl, 3 mM MgCl2, 1 mM DTT, 5% glycerol, 1 mM ATP, 25 C (EMSA: 2 mM ATP, 37 C, then 0.2% glutaraldehyde); conditions: protein: recombinant; label: internal fluorescein and ROX
Rad51 wild-type [9] = molecular target: T3, Rad51 wild-type; experiment: FRET; 1 mM ATP; dsDNA elongated to 1.37x B-form; 30 mM HEPES-KOH pH 7.5, 100 mM KCl, 3 mM MgCl2, 1 mM DTT, 5% glycerol, 1 mM ATP, 25 C (EMSA: 2 mM ATP, 37 C, then 0.2% glutaraldehyde); conditions: protein: recombinant; label: internal fluorescein and ROX on strand 1; blunt
Rad51-L2 [10] = molecular target: T1, Rad51-L2; experiment: FRET; 1 mM ATP; reduced elongation, 1.28x B-form; 30 mM HEPES-KOH pH 7.5, 100 mM KCl, 3 mM MgCl2, 1 mM DTT, 5% glycerol, 1 mM ATP, 25 C (EMSA: 2 mM ATP, 37 C, then 0.2% glutaraldehyde); conditions: protein: recombinant; label: internal fluorescein and ROX on strand 1; blunt
Rad51 wild-type [11] = molecular target: T3, Rad51 wild-type; experiment: fluorescence anisotropy; 1 mM ATP, 3 mM MgCl2; Hill n 1.99; main text prints 2.79 uM; 30 mM HEPES-KOH pH 7.5, 100 mM KCl, 3 mM MgCl2, 1 mM DTT, 5% glycerol, 1 mM ATP, 25 C (EMSA: 2 mM ATP, 37 C, then 0.2% glutaraldehyde); conditions: protein: recombinant; label: 5' TAMRA on strand 1; blunt
Rad51-L2 [12] = molecular target: T1, Rad51-L2; experiment: fluorescence anisotropy; 1 mM ATP, 3 mM MgCl2; Hill n 1.80; 30 mM HEPES-KOH pH 7.5, 100 mM KCl, 3 mM MgCl2, 1 mM DTT, 5% glycerol, 1 mM ATP, 25 C (EMSA: 2 mM ATP, 37 C, then 0.2% glutaraldehyde); conditions: protein: recombinant; label: 5' TAMRA on strand 1; blunt

B1: [TAMRA]dT72 (ssDNA)
DNA: TTTTTTTTTTTTTTTTTTTTTTTTTTTTTTTTTTTTTTTTTTTTTTTTTTTTTTTTTTTTTTTTTTTTTTTT
With B1 as the binder, how does the Kd (Rad51-L2 [1]) read?
The Kd was 308 ± 19 nM.

And the Kd (Rad51-S2 [2])?
The Kd was 895 ± 55 nM.

And the Kd (Rad51 wild-type [3])?
Its Kd is 358 ± 25 nM.

And the Kd (Rad51-L1 [4])?
The Kd was 664 ± 18 nM.

B2: wild-type Rad51 from the fission yeast Schizosaccharomyces pombe (natural protein, UniProt P36601 1-365, looked up)
chain: T1 sequence with A295V
notes: Rad51 recombinase, Schizosaccharomyces pombe; No tag is mentioned; purification is by conventional chromatography; also called SpRad51; WT
Does B2 bind (Swi5-Sfr1 complex)?
Result: binds

B3: Rad51-S2 mutant (R324A and K334A in site II) (natural protein, Schizosaccharomyces pombe, UniProt P36601 1-365, looked up)
chain: T1 sequence with A295V, R324A, K334A
notes: Rad51 recombinase, Schizosaccharomyces pombe, with R324A and K334A in site II; source: E. coli BL21-Codonplus(DE3) RIPL, purified (same procedure as wild-type Rad51)
Does B3 bind (Swi5-Sfr1 complex)?
Result: binds

B4: Rad51-L2 mutant (V295A in loop 2) (natural protein, Schizosaccharomyces pombe, UniProt P36601 1-365, looked up)
chain: T1 sequence
notes: Rad51 recombinase, Schizosaccharomyces pombe, with V295A in L2; source: E. coli BL21-Codonplus(DE3) RIPL, purified (same procedure as wild-type Rad51)
Does B4 bind (Swi5-Sfr1 complex)?
Result: binds

B5: Rad51-L1 mutant (R257A in loop 1) (natural protein, Schizosaccharomyces pombe, UniProt P36601 1-365, looked up)
chain: T1 sequence with R257A, A295V
notes: Rad51 recombinase, Schizosaccharomyces pombe, with R257A in L1; source: E. coli BL21-Codonplus(DE3) RIPL, purified (as wild-type Rad51, with a HiTrap Blue column instead of HiTrap Heparin)
Does B5 bind (Swi5-Sfr1 complex)?
Result: binds

B6: 16(A)(-)_F+R_73 ssDNA (ssDNA)
DNA: AAATGAACATAAAGTAAATAAGTATAAGGATAATACAAAATTAAGTAAATGAATAAACATAGAAAATAAAGTA
modifications: fluorescein-dT at 31; ROX-dT at 42
Which results are given for B6?
binding result (Rad51-L1 [5]): binds; binding result (Rad51-S2 [6]): binds; binding result (Rad51-L2 [7]): binds; binding result (Rad51 wild-type [8]): binds

B7: 16(A)(-)_F+R_73 bp duplex (dsDNA)
DNA 1: B6 DNA
DNA 2: TACTTTATTTTCTATGTTTATTCATTTACTTAATTTTGTATTATCCTTATACTTATTTACTTTATGTTCATTT
modifications: fluorescein-dT at 31 and ROX-dT at 42 of strand 1
Which results are given for B7?
binding result (Rad51 wild-type [9]): binds; binding result (Rad51-L2 [10]): binds

B8: [TAMRA]16A(-)_72 bp duplex (dsDNA)
DNA 1: AAATGAACATAAAGTAAATAAGTATAAGGATAATACAAAATAAGTAAATGAATAAACATAGAAAATAAAGTA
DNA 2: TACTTTATTTTCTATGTTTATTCATTTACTTATTTTGTATTATCCTTATACTTATTTACTTTATGTTCATTT
What does the source list for B8?
Kd (Rad51 wild-type [11]): 2610 ± 200 nM; Kd (Rad51-L2 [12]): 3520 ± 310 nM
